Measured values from publication PMC9622860, “Structural and molecular determinants of Candida glabrata metacaspase maturation and activation by calcium” (Communications Biology, 2022).

Target: T1, p20 domain of mature CgMCA-I (fragment between the cleavages after R54 and K263) (Candida glabrata, UniProt Q6FPX9 55-263)
T1 construct: Candida glabrata metacaspase CgMCA-I, p20 fragment left after cleavage after R54 and after K263; Residues seen in the maps: from after Gly68 (7QP1) or after Ser72 (7QP0) up to before Asn260; Limits are worked out from the cleavage sites found by mass spectrometry (R54, K263); The N-terminal His tag leaves with residues 1-54; source: E. coli T7 express, purified as CgMCA-I; cleaved by its own …
T1 sequence (looked up): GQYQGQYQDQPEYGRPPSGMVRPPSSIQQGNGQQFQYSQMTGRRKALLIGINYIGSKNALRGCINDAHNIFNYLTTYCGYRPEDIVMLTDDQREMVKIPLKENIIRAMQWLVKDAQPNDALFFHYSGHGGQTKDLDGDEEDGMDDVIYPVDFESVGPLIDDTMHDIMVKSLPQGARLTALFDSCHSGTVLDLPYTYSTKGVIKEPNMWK
Experiment: crystal structure; fully matured CgMCA-I with Ca2+ (7QP1, 3.0 A) and with Mg2+ (7QP0, 1.6 A); N-terminal part and p20-p10 linker cleaved off
Settings: both partners purified

B1: p10 domain of mature CgMCA-I (fragment after the cleavage at R307) (domain or fragment, Candida glabrata, UniProt Q6FPX9 308-392, looked up)
chain: QIKFSPADVIMLSGSKDNQTSADTFADGQNIGAMSHAFISVMTRQPQQSYLSLLQNLRNELAGKYSQKPQLSASHPIDVNLQFIM
notes: Candida glabrata metacaspase CgMCA-I, C-terminal p10 fragment left after cleavage after R307; Residues seen in the maps begin after Ile309; Limits are worked out from the cleavage site found by mass spectrometry (R307) and the stated length of 392 residues; also called p10 subunit; source: E. coli T7 express, purified as CgMCA-I; cleaved by its own maturation before or during crystallisation
  binding result: binds
